# Assay results taken from patent publication US20150204870A1.
# Biological target: thyroglobulin
# SNA (natural lectin, not treated with PNGaseF), sequence (Q41358 29-289): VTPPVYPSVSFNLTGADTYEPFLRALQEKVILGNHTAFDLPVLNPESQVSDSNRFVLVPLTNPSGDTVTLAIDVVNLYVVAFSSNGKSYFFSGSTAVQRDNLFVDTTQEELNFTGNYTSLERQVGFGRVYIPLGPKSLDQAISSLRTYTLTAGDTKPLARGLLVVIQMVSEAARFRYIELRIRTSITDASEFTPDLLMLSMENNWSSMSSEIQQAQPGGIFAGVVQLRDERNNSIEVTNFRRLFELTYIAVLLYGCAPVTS
# SNA (natural lectin, not treated with PNGaseF), sequence (Q41358 309-570): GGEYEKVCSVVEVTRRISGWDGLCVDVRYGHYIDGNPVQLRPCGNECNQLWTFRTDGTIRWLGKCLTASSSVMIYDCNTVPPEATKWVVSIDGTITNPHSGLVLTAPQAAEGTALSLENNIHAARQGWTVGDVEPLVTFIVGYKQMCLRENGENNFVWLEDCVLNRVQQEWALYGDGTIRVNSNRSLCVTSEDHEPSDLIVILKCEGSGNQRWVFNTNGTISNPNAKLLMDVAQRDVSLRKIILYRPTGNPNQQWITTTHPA
# SNA treated with PNGaseF (sugar chain-removed natural lectin), sequence (Q41358 29-289): as the sequence (Q41358 29-289) above
# SNA treated with PNGaseF (sugar chain-removed natural lectin), sequence (Q41358 309-570): as the sequence (Q41358 309-570) above
row,Substance,S/N Ratio
1,"MCA (natural lectin, not treated with PNGaseF)",3.1
2,MCA treated with PNGaseF (sugar chain-removed natural lectin),6.5
3,"SNA (natural lectin, not treated with PNGaseF)",1.5
4,SNA treated with PNGaseF (sugar chain-removed natural lectin),6
5,"SSA (natural lectin, not treated with PNGaseF)",1.9
6,SSA treated with PNGaseF (sugar chain-removed natural lectin),8
